Data: patent publication KR20220012792A (dated 2022)
Read-outs that look alike come from different tables or passages of the source.

Tests used:
Experiment in all cases: cell-based or functional assay
[1] = molecular target: T1, S 단백질 of SARS-CoV-2 BetaCoV/Korea/KCDC03/2020 (614D, S형) (SARS-CoV-2)
[2] = molecular target: S 단백질 of SARS-CoV-2 hCoV-19/South Korea/KNIH04/2020 (L형) (SARS-CoV-2)
[3] = molecular target: T1, S 단백질 of SARS-CoV-2 …; remark: listed apart in the source
[4] = molecular target: S 단백질 of SARS-CoV-2 hCoV-19/Korea/KCDC31/2020 (V형) (SARS-CoV-2)
[5] = molecular target: T1, S 단백질 of SARS-CoV-2 …; remark: listed apart in the source

B1: No. 139 항체 (Full IgG) (antibody, V domains shown)
VH: QITLKESGPTLVKPTQTLTLTCSFSGFSLSTSGVGVGWIRQPPGKALEWLALIDWDDNKYHTTSLKTRLTISKDTSKNQVVLTMTNMDPVDTATYYCARIPGFLRYRNRYYYYGMDVWGQGTTVTVSS
VL: ELVLTQPPSVSAAPGQKVTISCSGSSSNIGNNYVSWYQQLPGTAPKLLIYDNNKRPSGIPDRFSGSKSGTSATLGITGLQTGDEADYYCGTWDSSLSAGVFGGGTELTVL
IC50 (ng/ml), PRNT [1]: 29.8 ng/mL | IC50 (ng/ml), PRNT [2]: 4.79 ng/mL | IC50 (ng/ml), PRNT [3]: 6.76 ng/mL | IC50 (ng/ml), PRNT [4]: 8 ng/mL | IC50 (ng/ml), PRNT [5]: 4.1 ng/mL | IC50, PRNT [5]: 8.37 ng/mL
